Laboratory results from paper PMC8752778, “The RNA methyltransferase METTL8 installs m3C32 in mitochondrial tRNAsThr/Ser(UCN) to optimise tRNA structure and mitochondrial translation”.

Columns and labels:
His14-MBP-METTL8 [1] = target: T1, His14-MBP-METTL8 (Homo sapiens, UniProt B3KW44 1-407); test: fluorescence anisotropy; 30 mM phosphate pH 7.3, 200 mM KCl, 20 nM labelled oligonucleotide, 0-2 uM protein, 5 min at room temperature, measured at 22 C; details: protein: recombinant; tags: N-terminal His14-MBP; label: 5' fluorescein; hairpin
T1 sequence: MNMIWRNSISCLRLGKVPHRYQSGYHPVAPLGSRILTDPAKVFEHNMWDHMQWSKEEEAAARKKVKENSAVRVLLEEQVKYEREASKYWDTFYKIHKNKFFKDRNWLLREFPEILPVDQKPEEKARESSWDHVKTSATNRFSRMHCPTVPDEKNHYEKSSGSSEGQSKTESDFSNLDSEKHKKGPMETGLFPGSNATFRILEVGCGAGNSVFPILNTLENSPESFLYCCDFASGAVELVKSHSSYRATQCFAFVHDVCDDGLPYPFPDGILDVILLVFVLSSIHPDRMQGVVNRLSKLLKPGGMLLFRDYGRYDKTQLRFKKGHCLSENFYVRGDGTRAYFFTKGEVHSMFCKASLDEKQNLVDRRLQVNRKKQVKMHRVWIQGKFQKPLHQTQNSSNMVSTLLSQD

His14-MBP-METTL8 [2] = target: T1, His14-MBP-METTL8; test: as above; details: protein: recombinant; tags: N-terminal His14-MBP; label: fluorescein (5' click per Methods); hairpin
His14-MBP-METTL8 [3] = target: T1, His14-MBP-METTL8; test: fluorescence anisotropy; high affinity; lower than i6A37 ASL; Kd only in figure; 30 mM phosphate pH 7.3, 200 mM KCl, 20 nM labelled oligonucleotide, 0-2 uM protein, 5 min at room temperature, measured at 22 C; details: protein: recombinant; tags: N-terminal His14-MBP; label: fluorescein (5' hexynyl/6FAM azide click); hairpin
His14-MBP-METTL8 [4] = target: T1, His14-MBP-METTL8; test: fluorescence anisotropy; high affinity; Kd only in figure; 30 mM phosphate pH 7.3, 200 mM KCl, 20 nM labelled oligonucleotide, 0-2 uM protein, 5 min at room temperature, measured at 22 C; details: protein: recombinant; tags: N-terminal His14-MBP; label: fluorescein (5' click per Methods); hairpin
His14-MBP-METTL8 [5] = target: T1, His14-MBP-METTL8; test: fluorescence anisotropy; affinity similar to ASLs; Kd only in figure; 30 mM phosphate pH 7.3, 200 mM KCl, 20 nM labelled oligonucleotide, 0-2 uM protein, 5 min at room temperature, measured at 22 C; details: protein: recombinant; tags: N-terminal His14-MBP; label: fluorescein (5' click per Methods); single strand
His14-MBP-METTL8 [6] = target: T1, His14-MBP-METTL8; test: fluorescence anisotropy; up to 2 uM protein; 30 mM phosphate pH 7.3, 200 mM KCl, 20 nM labelled oligonucleotide, 0-2 uM protein, 5 min at room temperature, measured at 22 C; details: protein: recombinant; tags: N-terminal His14-MBP; label: 5' fluorescein

B1: mt-tRNASer(UCN) i6A37 ASL (structured_RNA)
RNA: GUUGGCUUGAAACCAGCU
modifications: i6A at strand position 11 (A37)
- Kd (His14-MBP-METTL8 [1]): 200 nM

B2: mt-tRNASer(UCN) m3C32 i6A37 ASL (structured_RNA)
RNA: GUUGGCUUGAAACCAGCU
modifications: m3C at strand position 6 (C32); i6A at strand position 11 (A37)
- binding signal (His14-MBP-METTL8 [2]): ~2.5 fold weaker than i6A37 ASL (N6)

B3: mt-tRNASer(UCN) ASL unmodified (structured_RNA)
RNA: GUUGGCUUGAAACCAGCU
- binding result (His14-MBP-METTL8 [3]): binds

B4: mt-tRNAMet ASL (structured_RNA)
RNA: UCGGGCCCAUACCCCGA
- binding result (His14-MBP-METTL8 [4]): binds

B5: Unstructured RNA R420 (ssRNA)
RNA: GUAAAAGUCGUAACAAAGGU
- binding result (His14-MBP-METTL8 [5]): binds

B6: Unstructured RNA 2 (ssRNA)
RNA: GACAUACUGACCCUUCAAAUA
- binding result (His14-MBP-METTL8 [5]): binds

B7: DNA oligonucleotide (ssDNA)
DNA: GATGTGCAGCTGCACATC
- binding result (His14-MBP-METTL8 [6]): no binding
